PMC3985386

What was measured:
[1] = biological target: Glutathiolated H-Ras^1-166 (Ras^SSG) (human) (UniProt P01112)
[2] = biological target: Truncated human H-ras (H-Ras^1-166), wild type (human) (UniProt P01112)

Question: How did the rate of MANT-GDP dissociation from 1 uM Ras with SOS^cat at a 1:1 ratio, 25°C [1] turn out when “Minimal catalytic domain of Son of Sevenless (SOS^cat) (domain or fragment)” was run?
Answer: The rate of MANT-GDP dissociation from 1 uM Ras with SOS^cat at a 1:1 ratio, 25°C was 0.00185 s⁻¹.

Question: What about the rate of MANT-GDP dissociation from 1 uM Ras with SOS^cat at a 1:1 ratio, 25°C [2] of the same substance?
Answer: The rate of MANT-GDP dissociation from 1 uM Ras with SOS^cat at a 1:1 ratio, 25°C was 0.00202 s⁻¹.
